Changes are numbered by the printed parent chain. Values belong to the binder of their own block, whether it stands above or below them. Starred links: 1 amine or outer side, 2 acyl side, 3 side chain; linkers in the order of their positions; H or OH if unused. Non-standard residues stand in square brackets, D forms with d. Groups on a side chain read outwards from the residue. No end group written: not given here. *: point of attachment. C18 diacid = O=C(O)CCCCCCCCCCCCCCCCC(=O)*; γGlu = O=C(O)[C@H](CCC(=O)[*:2])N[*:1]; Aib = CC(C)(N)C(=O)O
Legend:
Test in all cases: cell-based or functional assay
NPY2 receptor = biological target: T1, NPY2 receptor (human (printed as hNPY2R), UniProt P49146 1-381)
T1 sequence (looked up): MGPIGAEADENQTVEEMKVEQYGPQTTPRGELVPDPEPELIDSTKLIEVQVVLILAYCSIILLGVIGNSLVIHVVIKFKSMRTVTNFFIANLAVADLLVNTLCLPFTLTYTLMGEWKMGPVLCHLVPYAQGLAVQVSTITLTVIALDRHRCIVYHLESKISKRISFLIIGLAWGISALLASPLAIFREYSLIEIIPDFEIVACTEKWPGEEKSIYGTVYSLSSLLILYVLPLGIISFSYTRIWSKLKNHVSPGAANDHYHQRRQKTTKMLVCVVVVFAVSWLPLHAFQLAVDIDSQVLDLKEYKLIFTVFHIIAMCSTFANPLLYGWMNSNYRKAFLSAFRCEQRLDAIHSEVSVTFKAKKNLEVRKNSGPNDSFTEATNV

GIP receptor = biological target: T2, GIP receptor (human (printed as hGIPR), UniProt P48546 22-466)
T2 sequence (looked up): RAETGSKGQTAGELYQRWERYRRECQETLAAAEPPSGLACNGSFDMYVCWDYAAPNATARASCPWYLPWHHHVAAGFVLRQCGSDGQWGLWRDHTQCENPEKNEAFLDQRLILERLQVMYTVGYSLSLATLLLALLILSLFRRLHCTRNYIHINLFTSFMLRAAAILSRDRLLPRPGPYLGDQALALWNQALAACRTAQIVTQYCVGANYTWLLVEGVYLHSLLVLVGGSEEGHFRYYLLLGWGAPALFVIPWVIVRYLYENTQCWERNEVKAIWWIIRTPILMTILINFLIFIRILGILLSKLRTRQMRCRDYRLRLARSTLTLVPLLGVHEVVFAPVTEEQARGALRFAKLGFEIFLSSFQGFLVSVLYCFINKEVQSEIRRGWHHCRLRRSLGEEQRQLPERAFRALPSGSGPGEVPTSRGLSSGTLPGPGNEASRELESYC

GLP-1 receptor = GLP-1 receptor (human (printed as hGLP1R), UniProt P43220 24-463)

B1: Compound 202 (peptide)
peptide: Y[Aib]EGTFTSDYSI[Aib]LEKQAQ[Aib]EFVQWLIK([γGlu-γGlu-γGlu-γGlu-C18 diacid])GGPSEGASLRHYYNWLTRQRY-NH2
modifications: also: TFA salt
- EC50 hNPY2R 0.5% hP (CreLuc) (NPY2 receptor): 12.9 nM
- EC50 hNPY2R 100% hP (CreLuc) (NPY2 receptor): 64.5 nM
- EC50 hGIPR 0.5% hP (CreLuc) (GIP receptor): 0.26 nM
- EC50 hGIPR 100% hP (CreLuc) (GIP receptor): 1.81 nM
- EC50 hGLP1R 0.5% hP (CreLuc) (GLP-1 receptor): 0.21 nM
- EC50 hGLP1R 100% hP (CreLuc) (GLP-1 receptor): 10.4 nM

B2: Compound 204 (peptide)
peptide: Y[Aib]EGTFTSDYSI[Aib]LEKQAQ[Aib]AFVEWLIKGGPSSGASLRHYYNW[dD]TRQRY-NH2
modifications: not fully specified (residue 28); also: TFA salt
- EC50 hNPY2R 0.5% hP (CreLuc) (NPY2 receptor): > 99.9 nM
- EC50 hNPY2R 100% hP (CreLuc) (NPY2 receptor): > 999 nM
- EC50 hGIPR 0.5% hP (CreLuc) (GIP receptor): 0.35 nM
- EC50 hGIPR 100% hP (CreLuc) (GIP receptor): 2.88 nM
- EC50 hGLP1R 0.5% hP (CreLuc) (GLP-1 receptor): 0.12 nM
- EC50 hGLP1R 100% hP (CreLuc) (GLP-1 receptor): 3.14 nM

B3: Compound 203 (peptide)
peptide: Y[Aib]EGTFTSDYSI[Aib]LEKQAQ[Aib]AFVEWLIKGGPSYYASLRHYYNWLTRQRY-NH2
modifications: not fully specified (residue 28); also: TFA salt
- EC50 hNPY2R 0.5% hP (CreLuc) (NPY2 receptor): 9.07 nM
- EC50 hNPY2R 100% hP (CreLuc) (NPY2 receptor): 54.1 nM
- EC50 hGIPR 0.5% hP (CreLuc) (GIP receptor): 0.5 nM
- EC50 hGIPR 100% hP (CreLuc) (GIP receptor): 12.4 nM
- EC50 hGLP1R 0.5% hP (CreLuc) (GLP-1 receptor): 0.33 nM
- EC50 hGLP1R 100% hP (CreLuc) (GLP-1 receptor): 27 nM

B4: Compound 207 (peptide)
peptide: Y[Aib]EGTFTSDYSI[Aib]LEKQAQ[Aib]EFVQWLIKGGPSEGASLRHYYNWLTRQRY-NH2
modifications: not fully specified (residue 28); also: TFA salt
- EC50 hNPY2R 0.5% hP (CreLuc) (NPY2 receptor): 11 nM
- EC50 hNPY2R 100% hP (CreLuc) (NPY2 receptor): 50.3 nM
- EC50 hGIPR 0.5% hP (CreLuc) (GIP receptor): 0.63 nM
- EC50 hGIPR 100% hP (CreLuc) (GIP receptor): 1.66 nM
- EC50 hGLP1R 0.5% hP (CreLuc) (GLP-1 receptor): 0.36 nM
- EC50 hGLP1R 100% hP (CreLuc) (GLP-1 receptor): 12.7 nM

B6: Compound 208 (peptide)
peptide: YXEGTFTSDYSIXLEKQAQXAFVEWLIKGGPSSGASLRHYYNWLTRXRY
modifications: Aib at 2, 13, 20; bHGln (beta-homo-L-glutamine) at 47; K28 side chain carries C20DA-gGlu-gGlu-gGlu-gGlu-gGlu-gGlu-eLys; C-terminal amide
- EC50 hNPY2R 0.5% hP (CreLuc) (NPY2 receptor): > 100 nM
- EC50 hNPY2R 100% hP (CreLuc) (NPY2 receptor): > 1000 nM
- EC50 hGIPR 0.5% hP (CreLuc) (GIP receptor): 0.07 nM
- EC50 hGIPR 100% hP (CreLuc) (GIP receptor): 0.81 nM
- EC50 hGLP1R 0.5% hP (CreLuc) (GLP-1 receptor): 0.11 nM
- EC50 hGLP1R 100% hP (CreLuc) (GLP-1 receptor): 1.51 nM

Now from value to binder:

- EC50 hNPY2R 0.5% hP (CreLuc) (NPY2 receptor): 13.5 nM
- EC50 hNPY2R 100% hP (CreLuc) (NPY2 receptor): 122 nM
- EC50 hGIPR 0.5% hP (CreLuc) (GIP receptor): 0.24 nM
- EC50 hGIPR 100% hP (CreLuc) (GIP receptor): 1.83 nM
- EC50 hGLP1R 0.5% hP (CreLuc) (GLP-1 receptor): 0.11 nM
- EC50 hGLP1R 100% hP (CreLuc) (GLP-1 receptor): 3.69 nM
B5: Compound 212 (peptide)
peptide: Y[Aib]EGTFTSDYSI[Aib]LEKQAQ[Aib]AFVEWLIKGGPSSGVSLRHYYNWLTRQRY-NH2
modifications: not fully specified (residue 28); also: TFA salt

- EC50 hNPY2R 0.5% hP (CreLuc) (NPY2 receptor): 18.6 nM
- EC50 hNPY2R 100% hP (CreLuc) (NPY2 receptor): 35.4 nM
- EC50 hGIPR 0.5% hP (CreLuc) (GIP receptor): 0.74 nM
- EC50 hGIPR 100% hP (CreLuc) (GIP receptor): 8.85 nM
- EC50 hGLP1R 0.5% hP (CreLuc) (GLP-1 receptor): 1.34 nM
- EC50 hGLP1R 100% hP (CreLuc) (GLP-1 receptor): 17.2 nM
B7: Compound 217 (peptide)
peptide: B6 peptide with S33E, G34Y, A35V, X47Q
modifications: Aib at 2, 13, 20; K28 side chain carries C20DA-gGlu-gGlu-gGlu-gGlu-gGlu-gGlu-eLys; C-terminal amide

- EC50 hNPY2R 0.5% hP (CreLuc) (NPY2 receptor): 54.1 nM
- EC50 hNPY2R 100% hP (CreLuc) (NPY2 receptor): 430 nM
- EC50 hGIPR 0.5% hP (CreLuc) (GIP receptor): 0.28 nM
- EC50 hGIPR 100% hP (CreLuc) (GIP receptor): 2.3 nM
- EC50 hGLP1R 0.5% hP (CreLuc) (GLP-1 receptor): 0.19 nM
- EC50 hGLP1R 100% hP (CreLuc) (GLP-1 receptor): 3.39 nM
B8: Compound 210 (peptide)
peptide: B6 peptide with R38L, X47Q
modifications: Aib at 2, 13, 20; K28 side chain carries C20DA-gGlu-gGlu-gGlu-gGlu-gGlu-gGlu-eLys; C-terminal amide

- EC50 hNPY2R 0.5% hP (CreLuc) (NPY2 receptor): > 100 nM
- EC50 hNPY2R 100% hP (CreLuc) (NPY2 receptor): > 1000 nM
- EC50 hGIPR 0.5% hP (CreLuc) (GIP receptor): 0.34 nM
- EC50 hGIPR 100% hP (CreLuc) (GIP receptor): 1.53 nM
- EC50 hGLP1R 0.5% hP (CreLuc) (GLP-1 receptor): 0.16 nM
- EC50 hGLP1R 100% hP (CreLuc) (GLP-1 receptor): 3.03 nM
B9: Compound 213 (peptide)
peptide: B6 peptide with N42X, X47Q
modifications: Aib at 2, 13, 20, 42; K28 side chain carries C20DA-gGlu-gGlu-gGlu-gGlu-gGlu-gGlu-eLys; C-terminal amide

Source: patent US20240247080A1, “GLP1/GIP/NPY2 RECEPTOR TRIPLE AGONISTS” (Boehringer Ingelheim International GmbH, priority 2022, published 2024)
